Here are results for one sequence from patent publication US20240424107.

The data set relates to IgG Fc dimer protein, P01857-1. As to conditions: printed ggAGG[2'-F-rU]Gc[2'-F-rU]ccgaaaGgaa[2'-F-rC][2'-F-rU]cc (lowercase DNA, uppercase RNA); about 10 oxanine nucleotides added at 3' end; at least one aptamer per Fc dimer, one or two observed; HEPES pH 8.4, Mg, K, 37 C, 1 day.

“GGAGGTGCTCCGAAAGGAACTCC [Fc RNA aptamer Apt8-2-oxanine]” displayed an activity (% conjugation) of more than 98.
